Measured values published in the nanobody polyreactivity screen of Harvey et al. (2022).

Test: yeast display, Sf9 membrane polyspecificity reagent, FACS + sequencing; frameworks hold sequencing errors
Summary of the method: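 After 36–48 hours of galactose induction, yeast (Saccharomyces cerevisiae BJ5465) displaying a synthetic nanobody library were stained at 4 °C for 1 hour with 10% biotinylated, detergent-solubilized Sf9 membrane reagent. Streptavidin microbeads enriched the stained cells before FACS sorting into low and high (top ~1%) gates on anti-HA and streptavidin fluorescence. Each clone's polyreactivity label reflects its gate of origin.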

| Sequence | polyreactivity (PSR sort gate) |
| --- | --- |
| QVQLVESGGGLVQAGGSLRLSCAASGLTFKYYAMGWYRQAPGKERELVAAITYSVGTTYYADSVKGRFTISRDNAKNTVYLQMNSLKPEDTAVYYCAADFAPVGLPSPYAVSEGEDDYWGQGTQVTVSS | low polyreactivity |
| QVQLVESGGGLVQAGGSLRLSCAASGRTFPYNAMVWYRQAPGKERELVARITSGVRTYYADSVKGRFTISRDNAKNTVYLQMNSLKPEDTAVYYCAATTYNRFYRAPTSKYDYWGQGTQVTVSS | high polyreactivity |
| QVQLVESGGGLVQAGGSLRFSCAATGSIFVVNAMGWYRQAPGKERELVASITWSGDNTYYADSVKGRFTISRDNAKNTVYLQMNSLKPEDTAVYYCAATIWIAYRGWYSDYNYWGQGTQVTVSS | low polyreactivity |
| QVQLVESGGGLVQAGGSLRLSCAASGSIFAVYAMGWYRQAPGKERELVAAISVSGGRTYYADSVKGRFTISRDNAKNTVYLQMNSLKPEDTAVYYCAARSLSYYRSRAAQYGWGYYYWGQGTQVTVSS | high polyreactivity |
| QVQLVESGGGLVQAGGSLRLSCAASGITFVRNALGWYRQAPGKEREFVAAISWSGGSTYYADSVKGRFTISRDNAKNTVYLQMNSLKPEDTAVYYCNAGSSYLSRFPLDYWGQGTQVTVSS | high polyreactivity |
| QVQLVESGGGLVQAGGSLRLSCAASGFIFEPYAMGWYRQAPGKERELVAAISSGGSTYADSVKGRFTISRDNAKNTVYLQMISLKPEDTAVYYCAADSYYSVWGFYYWGQGTQVTVSS | low polyreactivity |
| QVQLVESGGCLVQAGGSLRLSCAASGRIFNYNAMGWYRQAPGKARELVAVITSGDSTNYADSVKGRFTISRDNAKNNVYLQMNSLKPEDTAVYYCAAEYYSIRYGPHSIEVYGMDYWGQGTQVTVSS | low polyreactivity |
| QVQLVESGGGLVQAGGSLRLSCAASGSTFPFYAMGWYRQAPGKEREFVAVISSSGGSTYYADSVKGRFTISRDNAKNTVYLQMNSLKPEDTAVYYCARSYPGRWYDYWGQGTQVTVSS | high polyreactivity |
| QVQLVESGGGLVQAGGSLRLSCAASGSTFKAYAMGWYRQAPGKQRELVAAITKSGGRTYYADSVKGRFTISRDNAKNTVYLQMNSLKPEDTAVYYCAAVFRPDSSAYRYYYWGQGTQVTVSS | high polyreactivity |
| QVQLVESGGGLVQAGGSLRLSCAASGSLFGYNAIGRYRQARGKERELVAAITGSGGSTYYADSVKGRFTLSRDNAKNTVYFQMNSLKPEDTAVYYCADDLFGGPLGYWDYDYWGQGTQVTVSS | low polyreactivity |
| QVQLVESGGGLVQAGGSLRLSCAASGRTFSVYAMGWYRQAPGKESELVAGITGNGGSTYYADSVKGRFTISRDNAKNTVYLQMNSLKPEDTAVYYCATAYWDIITRGEYGYWGQGTQVTVSS | low polyreactivity |
| QDQLVESGGGLVQAGGSLRLSCAASGFTFRHYVMGGSRQAPGKERELVAAIDVRGGSTYYADSVKGRFTISRDNAKNTVYLQMNSLKPEDTAVYYCAKRLIPRLPIMQKMDYWGQGTQVTVSS | low polyreactivity |
| QVQLVESGGGLVQAGGSLRLSCAASGRIFGAYAMGWYRQAPGKERELVAAITSRGGNTYYADSVKGRFTISRDTAKNTVYLQMNSLKPEDTAVYSCAARHDKRRQYYVGQSAFDYWGQGTQVTVSS | low polyreactivity |
| QVQLVESGGGLVQAGGSLRLSCAASGITFYDNAMGWYRQAPGKERELVAAIRSGDSTYYADSVKGRFTISRDNAKNTVYLQMNSLKPEDTAVYYCAARTPWVYYWRFYYWGQGTQVTVSS | high polyreactivity |
| QDQLVESGGGLDQAGGSLRLSCAASGRTFLWNAMGWYRQAPGKERELVARINLSGGRTYYADSVKGRFTISRDNAKNTVYLQMNSLKPDDTAVYYCAATVVRYRRDSWGQGTQVTVSS | low polyreactivity |
| QVQLVESGGGLVQAGGSLRLSCAASGSTFYFNAMGWYRQAPGKERELVAGIRYSGSSTYYADSVKGRFTISRDNAKNTVYLQMNSLKPVDTAVYYCAASLWRWRFSGFGYWGQGTQVTVSS | high polyreactivity |
| HVQLVESGGGFVQAGGSLRLSCASYGSIFSGYAMGSYRQAPAKERELVAAISNTGSTNYADSVKGRFTISRDNAKYNVYLQMNSLKPEDTAVYYCNASYSYGEMDYWGQGTQVTVSS | low polyreactivity |
| QVHLVESGGGLVQAGGSLRLSCAASGRIFYSHAMGWYRQAPGKEREFVAAISWSGGGTYYADSVKGRFTISRDNAKNTVYLQMNSLKPQDTAVYYCAARFRYYGSEYDYWGQGTKVTVSS | low polyreactivity |
| QVQLVESGGGLVQAGGSLRLSCAASGRTFVSNAMGWYRQAPGKERELVAAINSGGSTTYADSVKGRFTISRDNAKNTVYLKMNSLIPEDTAVYYFARRSRYSKGYDYWGQGTQVTVSS | low polyreactivity |
| QFQLVDSGGGLVQAGGSLSLICAASGLIFYTYAMGWYRQAPGKERELVAAISRTRVSTYYADSVKGRFTISRDNAKNTVYLQMNSLKPEYTAVYYCATSRYLKLGYDYWGQGTQVTVSS | high polyreactivity |
| QVQLVESGGGLVQAGGSLRLSCAASGRTFVRNTMGWYRQAPGKERELVAAISGGGSTYYADSVKGRFTISSDNAKKTVYLQMNSLKPEDTAVYYCAATTRRQGGKRFDYWGQGTQVTVSS | high polyreactivity |
| QVQLVESGGGLVQAGGRLRLSCAASGSTFGYYARGWYRQAPGKERELVAAISTSSGSKYFADSVKGRFTISRDNAKNTVYLQMNSLKPEDTAVYYCNARKASYRSIYYYWGQGTQVTVSS | high polyreactivity |

| Sequence | polyreactivity (PSR sort gate) |
| --- | --- |
| QVQLVESGGGLVQAGGSLRLSCAASGLTFSPNAMGWYRQAPRKERELVAAISSSGGRTNYADSVKGRFTISRDNAKNTVYLQMNSLKPEDTAFYYCAARFYKTYPRMNYWGQGTQVTVSS | high polyreactivity |
| QVQLVESGGGLVQAGGSLRLSCAASGSIFGRNAMGWYRQAPGKERELVADIWNGGSTYYADAVKGRFTISRDNAKNTVYLQMNSLKPEDTAVYYCNADADDVGRFGGYIKYDYWGQGTQVTVSS | low polyreactivity |
| QVQLVESGGGLVQAGGSLRLSCAASGITFQRYAMGWYRQAPGKERELVAAISWSGGSTYYADSVKGRFTISRDNAKNTVYLQMNSLKPVDTAVYYCAAELSVSTSHGVDYWGQGTQVTVSS | high polyreactivity |
| QVQLVESGGGLVKAGGILRLICVASGRTFLRYGMGWYRQAPGKERELVAAISIVGNTYYADSVKGRFTISRDNAKNTVYLQMNSLKPEDTAVYYCAAGRRFGRDYWGQGTQVTVSS | high polyreactivity |
| QVQLVESGGGLVQAGGSLRLSCAASGITFAFYDMGWYRQAPGKERELVAAISYSGGGTYYADSVKGRFTISRDNAKNTVYLQMNSLKPEDTAVYYCAADPKTHPLFGEDYWGQGTQVTVSS | low polyreactivity |
| QVQLVESGGGLVQAGGSLRLSCAASGSIFPWYAMGWYRQAPGNERELVAAINQIGGGGTNYADSVKGRFTISRDNAKNTVYLQMNSLKPEDTAVYYCAADHVWIRAYRFTKGDDYWGQGTQVTVSS | low polyreactivity |
| QVQLVESGGGLVQAGGTLRLSCAASGRIFRENAMGWYRQAPGKERELVAAISSGGSTYYADSVKGRFTISRDNAKNTVYLQMNSLKPEDTAVYYCAADLSWSRVVFGDYDYWGQGTQVTVSS | low polyreactivity |
| QFQLVESGGGLVQAGGSLRLSCAASGLTFYAYARGWYRQAPGKDSELVAAISSGGSTSYADSVKGRFTISRDNAKYTVYLQMNSLKPEDTAVYYCAARPISSRFFGWGYNYWGQGTQVTVSS | high polyreactivity |
| QVQLVESGGGLVQAGGSLRLSCAASGSTFSVYAMGWYRQAPGKERELVADITRGGSTYADSVKGRFTISRDNAKNTVYLQMNSLKPEDTAVYYCAREEVTPYPLYWSTREYDYWGQGTQVTVSS | low polyreactivity |
| QVQLVESGGGLVQAGGSLRLSCAASGRTFRTYVMGWYRRAPGKEREFVAGITWSSGSTRYADSVKGRFTISRDNAKNTVYLQMNSLKPEDTAVYYCAAKRWPGTDGYWGQGTQVTVSS | high polyreactivity |
| QVQLVESGGGLVQAGGSLRLSCAASGFTFRRYDMGWYRQAPGKERELVATLNRGGSTDYADSVKGRFTISRDNAKNTVYFQLNSLKPEETAVYYCATRYYSSRNWSEYYYWGQGTQVTVSS | high polyreactivity |
| QVQLVESGGGLVQAGGSLRLSCAASGLIFDKYAMGWYRQAPGKERELVAAITRSSGTTYYADSVKGRFTISRDNAKNTVYLQLNSLKPEDTAVYYCAARFIWGYWGVGYYYWGLGTQVTVSS | low polyreactivity |
| QDQLVESGGGLVQAGGSLRLSCAASGRIFPAYVMGWYRQAPGKERELVATIDNGGGTYYADSVKGRFTISRDNAKNTVYLQMNSLKPEDTAVYYCARDRHVRWGLKMDYWGQGTQVTVSS | low polyreactivity |
| QVQLVESGGGLVQAGGSLRLSCAASGSTLYWYAMGWYRQAPGKERELVAAITSGGNTYYADSVKGRFTISRDNAKNTVYLQMNSLKPEDTAVSYCAVGSFGVSAYSYYYWGQGTQVTVSS | low polyreactivity |
| QVQLVESGGGLVQAGGSLRLSCAASGRTLLPNAMGWSRQAPGKERELVASIRDGGDTNYADSVKGRFTISRDNAKNTVYLQMNSLKPEDTAVYYCNADWWAYYSFGHEYWGQGTQVTVSS | low polyreactivity |
| QVHLVDSGGGLVQAGGSLSLSCAASGIIFLTNAMGWYRQAPGTERELVAAITAIGGSTYYADSVKGSFTISRDTSKYTVYLQMNSLKPEDTAGYYCAADFSYVYYLYDYWGQGTQVTVSS | low polyreactivity |
| QVQLVESGGGLVQAGGSLRLSCAASGFTIYYYTMGWYRQAHGKERELVAAITWRGGSTNYADSVKGRFTISRDNAKNTVYLQMNSLKPEDTAVYYCAAVTYWFWPGMDYWGQGTQVTVSS | low polyreactivity |
| QVQLVESGGGLVQAGGSLRLSCAASGFIFRDNAMGWYRQAPGKERELVAASSSRGGSTYYADSVKGRFTISRDNAKNTVYLQMNSLKPEDTAVYYCAKRPYKYRVQLDSWGPGTQVTVSS | high polyreactivity |
| QVQLVESGGGLVQAGCSRRLRCAASGFTFRLYAMGWSRQAPGKERELVAATTSGGSTYYADSVKGRFTISRDNAKNTVYLQMNSLKPEDTAVYYCNKLYRTSVEYDYWGQGTLVTVSS | high polyreactivity |
| QVQLVESGGGLVQAGGSLRLSCAVSGFNFPYYAMGWYRQAPGKERELVAAINQRGGSTYYADSVKGRFTISRDNAKNTVYLQMNSLKPEDTAVYYCAADRHSKTYYYSYGYWGQGTQVTVSS | high polyreactivity |
| QVQLVESGGGLVQAGGSLRLSCAASGFTFARNTMGWYRQAPGKEREFVAVITNRGGSTYYADSVKGRFTISRDNAKNTVYLQMNSLKPEDTAVYYCAARKKHSGYGRGNYWGQGTQVTVSS | high polyreactivity |
